# Measured values published in publication PMC9098913, “In vitro reconstitution of Escherichia coli divisome activation” (Nature Communications, 2022).
# B1: FtsA R286W-His6: FtsA R286W (1-405) with amphipathic helix replaced by C-terminal His-tag (protein)
# chain: MIKATDRKLVVGLEIGTAKVAALVGEVLPDGMVNIIGVGSCPSRGMDKGGVNDLESVVKCVQRAIDQAELMADCQISSVYLALSGKHISCQNEIGMVPISEEEVTQEDVENVVHTAKSVRVRDEHRVLHVIPQEYAIDYQEGIKNPVGLSGVRMQAKVHLITCHNDMAKNIVKAVERCGLKVDQLIFAGLASSYSVLTEDERELGVCVVDIGGGTMDIAVYTGGALRHTKVIPYAGNVVTSDIAYAFGTPPSDAEAIKVRHGCALGSIVGKDESVEVPSVGGRPPWSLQRQTLAEVIEPRYTELLNLVNEEILQLQEKLRQQGVKHHLAAGIVLTGGAAQIEGLAACAQRVFHTQVRIGAPLNITGLTDYAQEPYYSTAVGLLHYGKESHLNGEAEVEKRVTASV
# modifications: Cy3 or Cy5 at the N-terminus in the labelled form (sortagging as for native FtsA); left off: TwinStrep-SUMO, N-terminal, cleaved | 5xGlycine tag, N-terminal, kept | His6, C-terminal, kept
# Test: Diffusion coefficient of His-tagged FtsAs and His-SUMO on Tris-NTA membranes (FRAP)
# Procedure: To study colocalization of His-tagged variants of FtsA, 0.5–1 µM of Cy5 labelled His-tagged FtsAs were added to the chamber, incubated for 20 min and washed 6x with reaction buffer. […] To control the density of membrane-bound FtsA, SUVs without and with Tris-NTA lipids were mixed to obtain the respective Tris-NTA concentrations. To perform FRET/FRAP experiments, equimolar concentrations of Cy3 and Cy5 labelled His-tagged FtsAs (total 0.5–1 µM) or His-SUMO-Cys were added to a chamber and treated as above. […] FRAP experiments were performed as described before.
# Bleaching the acceptor dye leads to an increase in the donor intensity, which can be used to quantify the Foerster Resonance energy transfer (FRET)[48]. FRET efficiency was quantified with E%=Ipost/Ipost+Ipre⋅100 , where Ipost is the intensity of the […] and Ipre is the […]. […] To extract the contribution of both processes, we adjusted a routine recently published by Gerganova et al.[33]. In short, the code provides the contribution of both modes of recovery by analysing the shape of the fluorescence recovery profile. […] Contribution of diffusion leads to a change of the slope of the outer borders of the bleached region (S4h right). Thus, by measuring the change of the slope of the border recovery, diffusion and simple on/off binding can be distinguished. We developed “FRAPdiff”, a graphical user interface, which uses the original fit routine by David Rutkowski. It can be used directly on.tiff movies with annotated bleach regions as ImageJ ROIs. In addition, we added optional bleach correction, user selectable projection axis (x or y), and optional mirroring of the recovery profiles, if bleaching was not symmetric. The original fit routine for estimating the recovery and diffusion dynamics can be found at https://github.com/davidmrutkowski/1DReflectingDiffusion. FRAPdiff is available at 10.5281/zenodo.6400639[49] under the GPLv3 open-source license.
molecule,measurement,setting,value
B1,Diffusion Coefficient,"0.1% Tris NTA, + FtsZ, mean (n: WT 2, R286W 3)",0.17 µm2/s
same,Diffusion Coefficient,"0.1% Tris NTA, + FtsZ, replicate Exp1",0.12 µm2/s
same,Diffusion Coefficient,"0.1% Tris NTA, + FtsZ, replicate Exp2",0.17 µm2/s
same,Diffusion Coefficient,"0.1% Tris NTA, + FtsZ, replicate Exp3",0.22 µm2/s
same,Diffusion Coefficient,"0.1% Tris NTA, without FtsZ, mean (n: WT 2, R286W 3, SUMO 2)",0.50 µm2/s
same,Diffusion Coefficient,"0.1% Tris NTA, without FtsZ, replicate Exp1",0.48 µm2/s
same,Diffusion Coefficient,"0.1% Tris NTA, without FtsZ, replicate Exp2",0.53 µm2/s
same,Diffusion Coefficient,"0.1% Tris NTA, without FtsZ, replicate Exp3",0.50 µm2/s
same,Diffusion Coefficient,"0.4% Tris NTA, + FtsZ, mean (n: WT 2, R286W 3)",0.08 µm2/s
same,Diffusion Coefficient,"0.4% Tris NTA, + FtsZ, replicate Exp1",0.12 µm2/s
same,Diffusion Coefficient,"0.4% Tris NTA, + FtsZ, replicate Exp2",0.11 µm2/s
same,Diffusion Coefficient,"0.4% Tris NTA, + FtsZ, replicate Exp3",0.0041 µm2/s
same,Diffusion Coefficient,"0.4% Tris NTA, without FtsZ, mean (n: WT 2, R286W 3, SUMO 3)",0.44 µm2/s
same,Diffusion Coefficient,"0.4% Tris NTA, without FtsZ, replicate Exp1",0.31 µm2/s
same,Diffusion Coefficient,"0.4% Tris NTA, without FtsZ, replicate Exp2",0.56 µm2/s
same,Diffusion Coefficient,"0.4% Tris NTA, without FtsZ, replicate Exp3",0.45 µm2/s
same,Diffusion Coefficient,"0.6% Tris NTA, + FtsZ, mean (n: WT 5, R286W 5)",0.0744 µm2/s
same,Diffusion Coefficient,"0.6% Tris NTA, + FtsZ, replicate Exp1",0.12 µm2/s
same,Diffusion Coefficient,"0.6% Tris NTA, + FtsZ, replicate Exp2",2.02e-8 µm2/s
same,Diffusion Coefficient,"0.6% Tris NTA, + FtsZ, replicate Exp3",9.38e-5 µm2/s
same,Diffusion Coefficient,"0.6% Tris NTA, + FtsZ, replicate Exp4",0.15 µm2/s
same,Diffusion Coefficient,"0.6% Tris NTA, + FtsZ, replicate Exp5",0.11 µm2/s
same,Diffusion Coefficient,"0.6% Tris NTA, without FtsZ, mean (n: WT 4, R286W 5, SUMO 4)",0.33 µm2/s
same,Diffusion Coefficient,"0.6% Tris NTA, without FtsZ, replicate Exp1",0.43 µm2/s
same,Diffusion Coefficient,"0.6% Tris NTA, without FtsZ, replicate Exp2",0.38 µm2/s
same,Diffusion Coefficient,"0.6% Tris NTA, without FtsZ, replicate Exp3",0.25 µm2/s
same,Diffusion Coefficient,"0.6% Tris NTA, without FtsZ, replicate Exp4",0.30 µm2/s
same,Diffusion Coefficient,"0.6% Tris NTA, without FtsZ, replicate Exp5",0.28 µm2/s
same,Diffusion Coefficient,"0.8% Tris NTA, + FtsZ, mean",0.04 µm2/s
same,Diffusion Coefficient,"0.8% Tris NTA, + FtsZ, replicate Exp1",0.07 µm2/s
same,Diffusion Coefficient,"0.8% Tris NTA, + FtsZ, replicate Exp2",0.02 µm2/s
same,Diffusion Coefficient,"0.8% Tris NTA, + FtsZ, replicate Exp3",0.0271 µm2/s
same,Diffusion Coefficient,"0.8% Tris NTA, + FtsZ, replicate Exp4",0.0336 µm2/s
same,Diffusion Coefficient,"0.8% Tris NTA, + FtsZ, replicate Exp5",0.0229 µm2/s
same,Diffusion Coefficient,"0.8% Tris NTA, + FtsZ, replicate Exp6",0.06 µm2/s
same,Diffusion Coefficient,"0.8% Tris NTA, without FtsZ, mean",0.22 µm2/s
same,Diffusion Coefficient,"0.8% Tris NTA, without FtsZ, replicate Exp1",0.17 µm2/s
same,Diffusion Coefficient,"0.8% Tris NTA, without FtsZ, replicate Exp2",0.22 µm2/s
same,Diffusion Coefficient,"0.8% Tris NTA, without FtsZ, replicate Exp3",0.26 µm2/s
same,Diffusion Coefficient,"0.8% Tris NTA, without FtsZ, replicate Exp4",0.17 µm2/s
same,Diffusion Coefficient,"0.8% Tris NTA, without FtsZ, replicate Exp5",0.30 µm2/s
same,Diffusion Coefficient,"0.8% Tris NTA, without FtsZ, replicate Exp6",0.20 µm2/s
same,Diffusion Coefficient,"1% Tris NTA, + FtsZ, mean",0.04 µm2/s
same,Diffusion Coefficient,"1% Tris NTA, + FtsZ, replicate Exp1",0.0437 µm2/s
same,Diffusion Coefficient,"1% Tris NTA, + FtsZ, replicate Exp2",0.0187 µm2/s
same,Diffusion Coefficient,"1% Tris NTA, + FtsZ, replicate Exp3",0.046 µm2/s
same,Diffusion Coefficient,"1% Tris NTA, + FtsZ, replicate Exp4",0.0142 µm2/s
same,Diffusion Coefficient,"1% Tris NTA, + FtsZ, replicate Exp5",0.03 µm2/s
same,Diffusion Coefficient,"1% Tris NTA, + FtsZ, replicate Exp6",0.09 µm2/s
same,Diffusion Coefficient,"1% Tris NTA, without FtsZ, mean",0.22 µm2/s
same,Diffusion Coefficient,"1% Tris NTA, without FtsZ, replicate Exp1",0.32 µm2/s
same,Diffusion Coefficient,"1% Tris NTA, without FtsZ, replicate Exp2",0.13 µm2/s
same,Diffusion Coefficient,"1% Tris NTA, without FtsZ, replicate Exp3",0.42 µm2/s
same,Diffusion Coefficient,"1% Tris NTA, without FtsZ, replicate Exp4",0.24 µm2/s
same,Diffusion Coefficient,"1% Tris NTA, without FtsZ, replicate Exp5",0.09 µm2/s
same,Diffusion Coefficient,"1% Tris NTA, without FtsZ, replicate Exp6",0.14 µm2/s
same,Diffusion Coefficient,"Tris 0.10 %, + FtsZ",0.17 µm2/s
same,Diffusion Coefficient,"Tris 0.10 %, without FtsZ",0.50 µm2/s
same,Diffusion Coefficient,"Tris 0.40 %, + FtsZ",0.08 µm2/s
same,Diffusion Coefficient,"Tris 0.40 %, without FtsZ",0.44 µm2/s
same,Diffusion Coefficient,"Tris 0.60 %, + FtsZ",0.0744 µm2/s
same,Diffusion Coefficient,"Tris 0.60 %, without FtsZ",0.33 µm2/s
same,Diffusion Coefficient,"Tris 0.80 %, + FtsZ",0.04 µm2/s
same,Diffusion Coefficient,"Tris 0.80 %, without FtsZ",0.22 µm2/s
same,Diffusion Coefficient,"Tris 1.00 %, + FtsZ",0.04 µm2/s
same,Diffusion Coefficient,"Tris 1.00 %, without FtsZ",0.22 µm2/s
same,Diffusion Coefficient,"Tris 2.00 %, + FtsZ",0.02 µm2/s
same,Diffusion Coefficient,"Tris 2.00 %, without FtsZ",0.035 µm2/s
same,Diffusion Coefficient,"[…] Tris NTA, + FtsZ, mean (n: WT 2, R286W 3)",0.14 µm2/s
same,Diffusion Coefficient,"[…] Tris NTA, + FtsZ, replicate Exp1",0.34 µm2/s
same,Diffusion Coefficient,"[…] Tris NTA, + FtsZ, replicate Exp2",0.000447 µm2/s
same,Diffusion Coefficient,"[…] Tris NTA, + FtsZ, replicate Exp3",0.07 µm2/s
same,Diffusion Coefficient,"[…] Tris NTA, without FtsZ, mean (n: WT 2, R286W 3, SUMO 3)",0.42 µm2/s
same,Diffusion Coefficient,"[…] Tris NTA, without FtsZ, replicate Exp1",0.55 µm2/s
same,Diffusion Coefficient,"[…] Tris NTA, without FtsZ, replicate Exp2",0.25 µm2/s
same,Diffusion Coefficient,"[…] Tris NTA, without FtsZ, replicate Exp3",0.47 µm2/s
same,Diffusion Coefficient,"[…] Tris-NTA, + N (FtsNcyto), mean",4.17E-05 µm2/s
same,Diffusion Coefficient,"[…] Tris-NTA, + N/Z, Exp. 1",2.50E-03 µm2/s
same,Diffusion Coefficient,"[…] Tris-NTA, + N/Z, Exp. 2",2.00E-05 µm2/s
same,Diffusion Coefficient,"[…] Tris-NTA, + N/Z, Exp. 3",1.00E-05 µm2/s
same,Diffusion Coefficient,"[…] Tris-NTA, + N/Z, mean",8.43E-04 µm2/s
same,Diffusion Coefficient,"[…] Tris-NTA, + N, Exp. 1",7.50E-05 µm2/s
same,Diffusion Coefficient,"[…] Tris-NTA, + N, Exp. 2",3.00E-05 µm2/s
same,Diffusion Coefficient,"[…] Tris-NTA, + N, Exp. 3",2.00E-05 µm2/s
same,Diffusion Coefficient,"[…] Tris-NTA, + Z (FtsZ), mean",0.05 µm2/s
same,Diffusion Coefficient,"[…] Tris-NTA, + Z, Exp. 1",0.0229 µm2/s
same,Diffusion Coefficient,"[…] Tris-NTA, + Z, Exp. 2",0.04 µm2/s
same,Diffusion Coefficient,"[…] Tris-NTA, + Z, Exp. 3",0.08 µm2/s
same,Diffusion Coefficient,"[…] Tris-NTA, alone, Exp. 1",0.14 µm2/s
same,Diffusion Coefficient,"[…] Tris-NTA, alone, Exp. 2",0.0561 µm2/s
same,Diffusion Coefficient,"[…] Tris-NTA, alone, Exp. 3",0.26 µm2/s
same,Diffusion Coefficient,"[…] Tris-NTA, alone, mean",0.15 µm2/s
same,Diffusion Coefficient,"with FtsNcyto, mean ± s.d., p-value 0.01",8.43 × 10^−4 ± 1.17 × 10^−3 µm^2/s
same,Diffusion Coefficient,"without FtsNcyto, mean ± s.d., p-value 0.01",0.05 ± 0.04 µm^2/s
